B4: human VEGFR-2/Fc (R&D Systems) (Fc fusion)
chain: ASVGLPSVSLDLPRLSIQKDILTIKANTTLQITCRGQRDLDWLWPNNQSGSEQRVEVTECSDGLFCKTLTIPKVIGNDTGAYKCFYRETDLASVIYVYVQDYRSPFIASVSDQHGVVYITENKNKTVVIPCLGSISNLNVSLCARYPEKRFVPDGNRISWDSKKGFTIPSYMISYAGMVFCEAKINDESYQSIMYIVVVVGYRIYDVVLSPSHGIELSVGEKLVLNCTARTELNVGIDFNWEYPSSKHQHKKLVNRDLKTQSGSEMKKFLSTLTIDGVTRSDQGLYTCAASSGLMTKKNSTFVRVHEKPFVAFGSGMESLVEATVGERVRIPAKYLGYPPPEIKWYKNGIPLESNHTIKAGHVLTIMEVSERDTGNYTVILTNPISKEKQSHVVSLVVYVPPQIGEKSLISPVDSYQYGTTQTLTCTVYAIPPPHHIHWYWQLEEECANEPSQAVSVTNPYPCEEWRSVEDFQGGNKIEVNKNQFALIEGKNKTVSTLVIQAANVSALYKCEAVNKVGRGERVISFHVTRGPEITLQPDMQPTEQESVSLWCTADRSTFENLTWYKLGPQPLPIHVGELPTPVCKNLDTLWKLNATMFSNSTNDILIMELKNASLQDQGDYVCLAQDRKTKKRHCVVRQLTVLERVAPTITGNLENQTTSIGESIEVSCTASGNPPPQIMWFKDNETLVEDSGIVLKDGNRNLTIRRVRKEDEGLYTCQACSVLGCAKVEAFFIIEGAQEKTNLE
notes: Bought protein; also called recombinant VEGFR2/Fc; not shown: Fc part; It is captured by goat anti-human IgG-Fc in the ELISA

Experiment [1] deals with T1, mouse VEGFR-2/Fc (R&D Systems) (mouse, UniProt P35918 20-762).
T1 construct: Bought protein; also called immobilized mouse VEGFR-2/Fc; not shown: Fc part, not described
T1 sequence (P35918 20-762 limits assumed): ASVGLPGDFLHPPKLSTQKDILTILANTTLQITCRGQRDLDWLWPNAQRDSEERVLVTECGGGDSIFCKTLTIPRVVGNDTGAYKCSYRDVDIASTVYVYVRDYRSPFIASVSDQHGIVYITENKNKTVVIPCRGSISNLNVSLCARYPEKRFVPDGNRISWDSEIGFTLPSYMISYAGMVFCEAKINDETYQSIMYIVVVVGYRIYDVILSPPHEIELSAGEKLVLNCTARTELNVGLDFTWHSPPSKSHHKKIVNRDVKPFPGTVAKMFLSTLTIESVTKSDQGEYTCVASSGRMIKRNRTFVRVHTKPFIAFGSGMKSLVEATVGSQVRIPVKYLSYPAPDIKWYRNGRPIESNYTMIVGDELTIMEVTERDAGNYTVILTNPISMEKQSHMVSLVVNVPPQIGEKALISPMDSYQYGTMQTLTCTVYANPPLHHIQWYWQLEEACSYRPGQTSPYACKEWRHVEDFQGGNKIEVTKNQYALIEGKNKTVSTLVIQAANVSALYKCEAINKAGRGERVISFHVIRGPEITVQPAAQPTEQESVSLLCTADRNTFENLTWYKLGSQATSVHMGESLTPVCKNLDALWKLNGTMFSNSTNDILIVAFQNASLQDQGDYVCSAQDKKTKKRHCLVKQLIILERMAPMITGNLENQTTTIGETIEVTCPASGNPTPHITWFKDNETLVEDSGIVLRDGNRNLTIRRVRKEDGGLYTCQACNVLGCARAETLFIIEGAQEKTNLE
Kind of experiment: SPR (Biacore 3000), immobilized mouse VEGFR-2/Fc. (In general: Surface plasmon resonance follows binding to a sensor surface in real time, without labels.)

The target of experiment [2] is B4. Briefly: SPR (Biacore 3000), immobilized human VEGFR-2/Fc.
The target in experiment [3] is T2, human VEGFR2 (KDR) expressed on 293/KDR cells (human, UniProt P35968 20-1356). Kind of experiment: flow cytometry on 293/KDR cells, S/N against biotin-isotype control.
Experiment [4] has as its target B4. Kind of experiment: ELISA on recombinant VEGFR2/Fc, absorbance at 405 nm. A general note: ELISA stands for enzyme-linked immunosorbent assay.
The target in experiment [5] is B4. Briefly: ELISA, captured recombinant VEGFR2/Fc, biotin-V21H4 (FIG. 13A); antibody alone, not conjugate.
Experiment [6] has as its target T2, human VEGFR2 (KDR) expressed on 293/KDR …. Briefly: flow cytometry on 293/KDR cells (FIG. 13B).
Experiment [7] has as its target B4. Briefly: SPR (Biacore 3000), immobilized human VEGFR-2/Fc; estimated from transformed data (FIG. 3).
Experiment [8] deals with T3, AB1-(SEQ ID NO:9) DOS47 antibody-urease conjugate (jack bean (Canavalia ensiformis), UniProt P07374 1-840, cross-linked to the antibody; sites not stated; chemically cross-linked to urease; cross-linker and sites not stated for this conjugate).
T3 construct: Antibody-enzyme conjugate; also called AB1-DOS47
T3 sequence (VHH, as listed by the source limits assumed, chain 1 of 2): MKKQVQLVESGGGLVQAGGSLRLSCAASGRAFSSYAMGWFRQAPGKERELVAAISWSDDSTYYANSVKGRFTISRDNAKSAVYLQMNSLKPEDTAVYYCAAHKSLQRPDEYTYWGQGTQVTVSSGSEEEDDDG
T3 sequence (P07374 whole entry, chain 2 of 2): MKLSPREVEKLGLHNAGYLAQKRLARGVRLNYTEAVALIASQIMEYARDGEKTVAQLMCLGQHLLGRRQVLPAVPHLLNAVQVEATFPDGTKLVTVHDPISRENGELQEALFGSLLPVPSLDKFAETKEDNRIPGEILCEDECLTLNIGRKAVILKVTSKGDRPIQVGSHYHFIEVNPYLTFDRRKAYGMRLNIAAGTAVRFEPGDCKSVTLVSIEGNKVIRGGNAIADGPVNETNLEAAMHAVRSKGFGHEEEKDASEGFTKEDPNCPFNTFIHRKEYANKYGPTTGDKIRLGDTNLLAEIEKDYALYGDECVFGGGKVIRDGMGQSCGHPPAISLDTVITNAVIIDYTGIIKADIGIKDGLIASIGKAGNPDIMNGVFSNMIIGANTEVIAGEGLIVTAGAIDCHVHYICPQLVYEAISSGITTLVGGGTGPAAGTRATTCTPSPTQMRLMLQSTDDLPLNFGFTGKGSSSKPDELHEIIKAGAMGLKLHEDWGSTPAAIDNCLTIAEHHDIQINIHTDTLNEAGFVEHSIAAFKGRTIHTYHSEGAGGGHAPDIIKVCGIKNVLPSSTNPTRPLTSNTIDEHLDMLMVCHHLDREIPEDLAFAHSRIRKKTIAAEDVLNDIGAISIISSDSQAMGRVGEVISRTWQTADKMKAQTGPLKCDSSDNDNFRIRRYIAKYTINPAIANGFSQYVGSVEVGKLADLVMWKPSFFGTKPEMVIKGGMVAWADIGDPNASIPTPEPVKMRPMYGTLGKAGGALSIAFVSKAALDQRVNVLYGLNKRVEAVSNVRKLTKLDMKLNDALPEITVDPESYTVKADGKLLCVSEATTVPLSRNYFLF
Briefly: ELISA on VEGFR2/Fc captured by anti-human IgG-Fc, conjugate detected with anti-urease [panel AB1-DOS47].

Experiment [9] has as its target V21H4-DOS47 (V21H4, SEQ ID NO:6, conjugated to jack bean urease through BM(PEG)2) (jack bean (Canavalia ensiformis), UniProt P07374 1-840, C824, C663, C59 and C207 partly linked through BM(PEG)2 to C136 of V21H4; C136 linked through BM(PEG)2 to a urease cysteine). Briefly: ELISA on recombinant VEGFR2/Fc, absorbance at 405 nm.
Experiment [10] addresses V21H1-DOS47 (V21H1, SEQ ID NO:3, conjugated to jack bean urease through SM(PEG)2) (jack bean (Canavalia ensiformis), UniProt P07374 1-840, surface cysteines linked through SM(PEG)2 to the antibody; primary amines linked through SM(PEG)2 to urease cysteines; K66 in CDR2 was about 25% of the activated antibody). Described as above.
The target of experiment [11] is T4, AB2-(SEQ ID NO:13) DOS47 antibody-urease conjugate (jack bean (Canavalia ensiformis), UniProt P07374 1-840, cross-linked to the antibody; sites not stated; chemically cross-linked to urease; cross-linker and sites not stated for this conjugate).
T4 construct: Antibody-enzyme conjugate; also called AB2-DOS47
T4 sequence (VH, as listed by the source limits assumed, chain 1 of 2): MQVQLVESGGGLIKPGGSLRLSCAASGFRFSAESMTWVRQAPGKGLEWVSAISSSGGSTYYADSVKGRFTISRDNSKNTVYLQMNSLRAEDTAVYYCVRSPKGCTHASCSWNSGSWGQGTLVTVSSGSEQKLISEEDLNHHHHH
T4 sequence (P07374 whole entry, chain 2 of 2): as the sequence (P07374 whole entry, chain 2 of 2) above
Kind of experiment: ELISA on VEGFR2/Fc captured by anti-human IgG-Fc, conjugate detected with anti-urease [panel AB2-DOS47].

For experiment [12], the target named is T5, AB4-(SEQ ID NO:27) DOS47 antibody-urease conjugate (jack bean (Canavalia ensiformis), UniProt P07374 1-840, cross-linked to the antibody; sites not stated; chemically cross-linked to urease; cross-linker and sites not stated for this conjugate).
T5 construct: Antibody-enzyme conjugate; also called AB4-DOS47
T5 sequence (VHH, as listed by the source limits assumed, chain 1 of 2): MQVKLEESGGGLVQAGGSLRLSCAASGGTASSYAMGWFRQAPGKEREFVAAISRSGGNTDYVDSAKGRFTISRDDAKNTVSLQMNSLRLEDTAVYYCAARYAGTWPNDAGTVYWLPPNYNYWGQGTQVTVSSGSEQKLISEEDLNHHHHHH
T5 sequence (P07374 whole entry, chain 2 of 2): as the sequence (P07374 whole entry, chain 2 of 2) above
Briefly: ELISA on VEGFR2/Fc captured by anti-human IgG-Fc, conjugate detected with anti-urease [panel AB4-DOS47].

Experiment [13] concerns the target T6, V21H4-DOS47 with 9.4 antibodies per urease (jack bean (Canavalia ensiformis), UniProt P07374 1-840, surface cysteines partly linked through BM(PEG)2 to C136 of V21H4; C136 linked through BM(PEG)2 to a urease cysteine).
T6 construct: The conjugation ratio is an average value from SDS-PAGE
Briefly: ELISA on recombinant VEGFR2/Fc, absorbance at 405 nm, V21H4-DOS47 at different antibody/urease ratios.

The target in experiment [14] is T7, V21H4-DOS47 with 3.3 antibodies per urease (jack bean (Canavalia ensiformis), UniProt P07374 1-840, surface cysteines partly linked through BM(PEG)2 to C136 of V21H4; C136 linked through BM(PEG)2 to a urease cysteine).
T7 construct: The conjugation ratio is an average value from SDS-PAGE
T7 sequence (VHH, as listed by the source limits assumed, chain 1 of 2): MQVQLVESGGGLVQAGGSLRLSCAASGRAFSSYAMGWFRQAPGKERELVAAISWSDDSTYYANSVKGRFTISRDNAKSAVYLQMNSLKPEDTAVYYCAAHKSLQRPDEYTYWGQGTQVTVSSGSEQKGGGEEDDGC
T7 sequence (P07374 whole entry, chain 2 of 2): as the sequence (P07374 whole entry, chain 2 of 2) above
The experiment is described as above.

Experiment [15] concerns the target T8, V21H4-DOS47 with 1.4 antibodies per urease (jack bean (Canavalia ensiformis), UniProt P07374 1-840, surface cysteines partly linked through BM(PEG)2 to C136 of V21H4; C136 linked through BM(PEG)2 to a urease cysteine).
T8 construct: The conjugation ratio is an average value from SDS-PAGE
Described as above.

Experiment [16] has as its target T9, V21H4-DOS47 with 2.3 antibodies per urease (jack bean (Canavalia ensiformis), UniProt P07374 1-840, surface cysteines partly linked through BM(PEG)2 to C136 of V21H4; C136 linked through BM(PEG)2 to a urease cysteine).
T9 construct: The conjugation ratio is an average value from SDS-PAGE
The description is as above.

Chain of V21H1-DOS47 (V21H1, SEQ ID NO:3, conjugated to jack bean urease through SM(PEG)2) (VHH, as listed by the source limits assumed, chain 1 of 2): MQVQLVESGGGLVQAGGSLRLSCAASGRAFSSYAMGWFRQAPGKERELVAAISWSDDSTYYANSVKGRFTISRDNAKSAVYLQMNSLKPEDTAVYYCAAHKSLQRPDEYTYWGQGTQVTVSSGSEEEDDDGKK
Chain of V21H1-DOS47 (V21H1, SEQ ID NO:3, conjugated to jack bean urease through SM(PEG)2) (P07374 whole entry, chain 2 of 2): as the sequence (P07374 whole entry, chain 2 of 2) above
Chain of V21H4-DOS47 (V21H4, SEQ ID NO:6, conjugated to jack bean urease through BM(PEG)2) (P07374 whole entry, chain 2 of 2): as above
T8 sequence (P07374 whole entry, chain 2 of 2): as above
T9 sequence (P07374 whole entry, chain 2 of 2): as above
T6 sequence (P07374 whole entry, chain 2 of 2): as above

B1: AB4 with linker 2 (SEQ ID NO:27) (VHH)
VHH: QVKLEESGGGLVQAGGSLRLSCAASGGTASSYAMGWFRQAPGKEREFVAAISRSGGNTDYVDSAKGRFTISRDDAKNTVSLQMNSLRLEDTAVYYCAARYAGTWPNDAGTVYWLPPNYNYWGQGTQVTVSS
notes: Llama single domain antibody expressed in E. coli; also called VR2-38
Regarding B1, the binding result in experiment [1] is “no binding (tested: 150˜200 nM)”. In experiment [2], binding was characterised by a dissociation constant (Kd) of 0.08 µM.

B2: biotin-V21H4 (SEQ ID NO:6) (VHH)
VHH: QVQLVESGGGLVQAGGSLRLSCAASGRAFSSYAMGWFRQAPGKERELVAAISWSDDSTYYANSVKGRFTISRDNAKSAVYLQMNSLKPEDTAVYYCAAHKSLQRPDEYTYWGQGTQVTVSS
modifications: biotinylated (site not stated)
notes: The biotinylation method is not described; also called V21H4 antibody
For the molecule B2, the “EC50 (read off the curve)” value in [3] and in experiment [4] was roughly 0.002 µM in each case. The concentration for a half-maximal effect (EC50) – broadly, the midpoint of the concentration-response curve – is 0.0018 µM in experiment [5] and 0.0016 µM in [6].

B3: AB1 with linker 2 (SEQ ID NO:7) (VHH)
VHH: QVQLVESGGGLVQAGGSLRLSCAASGRAFSSYAMGWFRQAPGKERELVAAISWSDDSTYYANSVKGRFTISRDNAKSAVYLQMNSLKPEDTAVYYCAAHKSLQRPDEYTYWGQGTQVTVSS
notes: Llama single domain antibody expressed in E. coli BL21(DE3); The monomer fraction from Superdex 75 was used for SPR; also called VR2-21
Regarding B3, in experiment [1], the binding result is “no binding (tested: 150˜200 nM)”. Besides, in [7], the Kd (usually the equilibrium constant for the complex coming apart) is roughly 0.08 µM; the off-rate constant (koff) (commonly the rate constant with which the complex falls apart) was less than 0.01 s⁻¹; the kon – broadly, a measure of how fast the partners come together – is roughly 60000 M⁻¹ s⁻¹.
For the molecule B4, the binding result in [8], in experiment [9], in [10], in [11], in [12] and in experiment [13] was “binds” each time. Besides, the binding result in [14], in [15] and in [16] was “binds” in each case.

B5: AB3 with linker 2 (SEQ ID NO:21) (antibody, V domains shown)
VH: QVQLVESGGGLIKPGGSLRLSCAASGDMLSYDVMSWVRQAPGKGLEWVSAISSSGGSTYYADSVKGRFTISRDNSKNTVYLQMNSLRAEDTAVYYCVAAPWRCTHDNCSKTRASWGQGTMVTVSS
notes: Single domain antibody on a human VH scaffold, expressed in E. coli; also called VR2-801-45
Consider B5, for which the binding result in experiment [1] is reported as “no binding (tested: 150˜200 nM)”. Besides, in [2], the dissociation constant Kd came out at 0.9 µM, the koff was 0.045 s⁻¹ and the on-rate constant (kon) was 53000 M⁻¹ s⁻¹.

B6: AB2 with linker 2 (SEQ ID NO:13) (antibody, V domains shown)
VH: QVQLVESGGGLIKPGGSLRLSCAASGFRFSAESMTWVRQAPGKGLEWVSAISSSGGSTYYADSVKGRFTISRDNSKNTVYLQMNSLRAEDTAVYYCVRSPKGCTHASCSWNSGSWGQGTLVTVSS
notes: Single domain antibody on a human VH scaffold, from a human VH library, expressed in E. coli; also called VR2-801-18
In the case of B6, the binding result in [1] is reported as “no binding (tested: 150˜200 nM)”. In experiment [2], this molecule displayed a dissociation constant Kd of 0.5 µM, an off-rate constant (koff) of 0.02 s⁻¹ and an association rate constant (kon) of 46000 M⁻¹ s⁻¹.

(Values after patent US20180243437A1 (published 2018).)
